Measured values taken from US20100196934A1.
Where “and” joins values, the source holds several entries; their conditions need not be identical. Identical values can stand only once. Like-named read-outs stand apart in the source and are kept apart here.

Experiments:
[1] = biological target: Sheep recombinant PrP (sheep); assay: direct ELISA, coated denatured rPrP 0.1 ng/assay
[2] = biological target: Mouse recombinant PrP (mouse); assay: direct ELISA, coated denatured rPrP 0.1 ng/assay
[3] = biological target: Human recombinant PrP (human); assay: direct ELISA, coated denatured rPrP 0.1 ng/assay
[4] = biological target: Bovine recombinant PrP (bovine); assay: direct ELISA, coated denatured rPrP 0.1 ng/assay
[5] = biological target: Deer recombinant PrP (deer); assay: direct ELISA, coated denatured rPrP 0.1 ng/assay
Mouse BH PrP^Sc (mouse) [6] = assay: direct ELISA, coated denatured mouse BH PrP^Sc 0.1 mg BH/assay
[7] = biological target: Sheep recombinant PrP (sheep); assay: direct ELISA, coated denatured rPrP 1 ng/assay
[8] = biological target: Mouse recombinant PrP (mouse); assay: direct ELISA, coated denatured rPrP 1 ng/assay
[9] = biological target: Human recombinant PrP (human); assay: direct ELISA, coated denatured rPrP 1 ng/assay
[10] = biological target: Bovine recombinant PrP (bovine); assay: direct ELISA, coated denatured rPrP 1 ng/assay
[11] = biological target: Deer recombinant PrP (deer); assay: direct ELISA, coated denatured rPrP 1 ng/assay
Mouse BH PrP^Sc (mouse) [12] = assay: direct ELISA, coated denatured mouse BH PrP^Sc 1 mg BH/assay
[13] = biological target: Syrian hamster PrP^C (normal SHa brain homogenate) (Syrian hamster); assay: sandwich ELISA, capture 3F4; normal SHa BH, PK 25 ug/mL, GdnHCl-denatured
[14] = biological target: Syrian hamster PrP^C (normal SHa brain homogenate) (Syrian hamster); assay: sandwich ELISA, capture 3F4; normal SHa BH, trypsin 10 ug/mL, NaOH-denatured
[15] = biological target: Syrian hamster PrP^Sc (scrapie-infected SHa brain homogenate) (Syrian hamster); assay: sandwich ELISA, capture POM17; infectious SHa BH, PK 25 ug/mL, GdnHCl-denatured
[16] = biological target: Syrian hamster PrP^Sc (scrapie-infected SHa brain homogenate) (Syrian hamster)
[17] = biological target: Syrian hamster PrP^C (normal SHa brain homogenate) (Syrian hamster); assay: sandwich ELISA, capture 3F4; normal SHa BH, trypsin 50 ug/mL, not denatured
[18] = biological target: Syrian hamster PrP^C (normal SHa brain homogenate) (Syrian hamster); assay: sandwich ELISA, capture 3F4; normal SHa BH, PK 5 ug/mL, NaOH-denatured
[19] = biological target: Syrian hamster PrP^C (normal SHa brain homogenate) (Syrian hamster); assay: sandwich ELISA, capture 3F4; normal SHa BH, PK 10 ug/mL, NaOH-denatured
[20] = biological target: Syrian hamster PrP^C (normal SHa brain homogenate) (Syrian hamster); assay: sandwich ELISA, capture 3F4; normal SHa BH, trypsin 100 ug/mL, NaOH-denatured
[21] = biological target: Syrian hamster PrP^C (normal SHa brain homogenate) (Syrian hamster); assay: sandwich ELISA, capture 3F4; normal SHa BH, trypsin 20 ug/mL, NaOH-denatured
[22] = biological target: Syrian hamster PrP^C (normal SHa brain homogenate) (Syrian hamster); assay: sandwich ELISA, capture 3F4; normal SHa BH, trypsin 0 ug/mL, NaOH-denatured
[23] = biological target: Syrian hamster PrP^C (normal SHa brain homogenate) (Syrian hamster); assay: sandwich ELISA, capture POM17; normal SHa BH, PK 25 ug/mL, GdnHCl-denatured
[24] = biological target: Syrian hamster PrP^Sc (scrapie-infected SHa brain homogenate) (Syrian hamster); assay: sandwich ELISA, capture 3F4; infectious SHa BH, PK 25 ug/mL, GdnHCl-denatured
[25] = biological target: Syrian hamster PrP^C (normal SHa brain homogenate) (Syrian hamster); assay: sandwich ELISA, capture 3F4; normal SHa BH, PK 0 ug/mL, NaOH-denatured
[26] = biological target: Syrian hamster PrP^C (normal SHa brain homogenate) (Syrian hamster); assay: sandwich ELISA, capture 3F4; normal SHa BH, trypsin 25 ug/mL, GdnHCl-denatured
[27] = biological target: Syrian hamster PrP^C (normal SHa brain homogenate) (Syrian hamster); assay: sandwich ELISA, capture 3F4; normal SHa BH, trypsin 0 ug/mL, not denatured
[28] = biological target: Syrian hamster PrP^C (normal SHa brain homogenate) (Syrian hamster); assay: sandwich ELISA, capture 3F4; normal SHa BH, PK 100 ug/mL, NaOH-denatured
[29] = biological target: Syrian hamster PrP^C (normal SHa brain homogenate) (Syrian hamster); assay: sandwich ELISA, capture 3F4; normal SHa BH, PK 50 ug/mL, NaOH-denatured
[30] = biological target: Syrian hamster PrP^C (normal SHa brain homogenate) (Syrian hamster); assay: sandwich ELISA, capture 3F4; normal SHa BH, trypsin 100 ug/mL, not denatured
[31] = biological target: Syrian hamster PrP^Sc (scrapie-infected SHa brain homogenate) (Syrian hamster); assay: sandwich ELISA, capture 3F4; scrapie-infected SHa BH, PK 5 ug/mL, NaOH-denatured
[32] = biological target: Syrian hamster PrP^C (normal SHa brain homogenate) (Syrian hamster); assay: sandwich ELISA, capture 3F4; normal SHa BH, PK 20 ug/mL, NaOH-denatured
[33] = biological target: Syrian hamster PrP^C (normal SHa brain homogenate) (Syrian hamster); assay: sandwich ELISA, capture 3F4; normal SHa BH, trypsin 50 ug/mL, NaOH-denatured
[34] = biological target: Syrian hamster PrP^C (normal SHa brain homogenate) (Syrian hamster); assay: sandwich ELISA, capture 3F4; normal SHa BH, trypsin 25 ug/mL, not denatured
[35] = biological target: Human PrP^C (normal human plasma; normal human brain homogenate) (human); assay: sandwich ELISA, capture 3F4; normal human plasma, trypsin 0 ug/mL, not denatured
[36] = biological target: Syrian hamster PrP^Sc (scrapie-infected SHa brain homogenate) (Syrian hamster); assay: sandwich ELISA, capture 3F4; scrapie-infected SHa BH, PK 0 ug/mL, NaOH-denatured
[37] = biological target: Syrian hamster PrP^C (normal SHa brain homogenate) (Syrian hamster); assay: sandwich ELISA, capture POM17; normal SHa BH, trypsin 25 ug/mL, GdnHCl-denatured
[38] = biological target: Syrian hamster PrP^C (normal SHa brain homogenate) (Syrian hamster); assay: sandwich ELISA, capture 3F4; normal SHa BH, trypsin 5 ug/mL, NaOH-denatured
[39] = biological target: Syrian hamster PrP^C (normal SHa brain homogenate) (Syrian hamster); assay: sandwich ELISA, capture POM2; normal SHa BH, trypsin 25 ug/mL, GdnHCl-denatured
[40] = biological target: Syrian hamster PrP^Sc (scrapie-infected SHa brain homogenate) (Syrian hamster); assay: sandwich ELISA, capture POM2; infectious SHa BH, PK 25 ug/mL, GdnHCl-denatured
[41] = biological target: Syrian hamster PrP^C (normal SHa brain homogenate) (Syrian hamster); assay: sandwich ELISA, capture POM2; normal SHa BH, PK 25 ug/mL, GdnHCl-denatured

Substance	RLU [1] [RLU]	RLU [2] [RLU]	RLU [3] [RLU]	RLU [4] [RLU]	RLU [5] [RLU]	RLU (Mouse BH PrP^Sc (mouse) [6]) [RLU]	RLU [7] [RLU]	RLU [8] [RLU]	RLU [9] [RLU]	RLU [10] [RLU]	RLU [11] [RLU]	RLU (Mouse BH PrP^Sc (mouse) [12]) [RLU]	RLU [13] [RLU]	RLU [14] [RLU]	RLU [16]	RLU [18] [RLU]	RLU [19] [RLU]	RLU [20] [RLU]	RLU [21] [RLU]	RLU [22] [RLU]	also measured
mAb 6H4 (antibody)	125	104	72.7	89.1	92.4	178	160	332	192	691	222	610									
POM2 antibody													10	19.7	2370 RLU and 2250 RLU	84.1	50.2	3.4	8.5	2140	RLU [15]: 596 RLU; RLU [17]: 14.9 RLU; RLU [23]: 13.4 RLU; RLU [24]: 527 RLU; RLU [25]: 1950 RLU; RLU [26]: 21.4 RLU; RLU [27]: 2940 RLU; RLU [28]: 4.6 RLU; RLU [29]: 15.8 RLU; RLU [30]: 11.7 RLU; RLU [31]: 2310 RLU; RLU [32]: 37.1 RLU; RLU [33]: 3.4 RLU; RLU [34]: 20.5 RLU; RLU [35]: 195 RLU; RLU [36]: 2290 RLU; RLU [37]: 70.6 RLU; RLU [38]: 33.2 RLU
Mouse anti Prion (MAB5424) (antibody)	214	90.1	76.1	84.6	104	167	899	605	67.6	827	118	601									
HuM D13 (antibody)	179	117	89.5	75.1	232	239	161	294	69.9	93.1	130	664									
POM17 antibody													1.7	4.5	254 RLU and 381 RLU	11.4	7.2	2.6	2.8	1660	RLU [39]: 14.6 RLU; RLU [40]: 68.4 RLU; RLU [24]: 200 RLU; RLU [25]: 1680 RLU; RLU [26]: 2 RLU; RLU [28]: 2.8 RLU; RLU [29]: 3.3 RLU; RLU [31]: 2480 RLU; RLU [32]: 5.5 RLU; RLU [41]: 1.8 RLU; RLU [33]: 2 RLU; RLU [36]: 3860 RLU; RLU [38]: 8.5 RLU
mAb to prion 7D9 (antibody)	230	118	81.4	149	121	159	993	769	66.1	961	117	614									
